“Also recorded” adds a separate entry of the source.
Key:
[1] = system: iPSC-derived pancreatic progenitors; assay: Acinar differentiation of iPSC-derived pancreatic progenitors (ICC); type: cell-based, human; details: for PDX1 levels / expression / amylase positive clusters / cells: Notch modulation in the presence of FGF10
Experimental: Using the same DMEM base media, cells were then treated daily for seven days with XXI, FGF10, Noggin, Nicotinamide, and Murine Wnt3a (Peprotech). By the end of this stage, cell clustering could be seen.
Planar fixed samples were fixed with 4% paraformaldehyde in PBS for 15 minutes. Following this, they were washed three times with PBS and then incubated with 10% donkey serum with 0.1% Triton-X for one hour. Primary antibodies diluted in the 10% blocking serum were added, and the samples were let incubate for three hours at room temperature or overnight at 4 C. From here, the samples were washed three times for five minutes each with 0.1% TWEEN in PBS. Secondary antibodies diluted at 1:1000 in the blocking serum were added and the samples were allowed to sit one hour at room temperature. Three rounds of five-minute washes with PBS were performed before Hoechst was added at a 1:2000 dilution in PBS. After a 15-minute room temperature incubation, samples were washed with PBS three times before being imaged.
We performed an experiment comparing the use of notch inhibitor XXI vs notch activator sDLL-1 with FGF10. […] We added Wnt3a as it is important.

[2] = system: iPSC-derived pancreatic progenitors; assay: iPan Ductal maturation/specification (qPCR, ICC); type: cell-based, human
Experimental: After 1 day of Phase III, on Day 7, cells were single cell dissociated with TrypLE for 3-6 minutes, washed and seeded at 33% confluency (9.5×10^4 cells/cm^2) in Phase III media plus 10 μM Rho kinase Inhibitor. On Day 8 onwards, cells were treated with Phase IV media—addition of FGF10 (25 ng/ml), EGF (50 ng/ml), and sDLL-1 (25 ng/ml, Peprotech). The base media for phase III and IV consists of DMEM, lx Pen-Strep, 1×B27 without Vitamin A (Thermo Fisher), and Vitamin C (250 μM).
For organoids, Cell Recovery Solution (Corning) was added for an hour in 4° to remove Matrigel then washed 3× with PBS. Total RNA was isolated with RLT buffer (Qiagen), syringed with 23 G needle, then extracted with RNeasy Micro Kit (Qiagen) according to the manufacturer's instructions. The concentration and the purity of RNA was determined with NanoDrop. 1-2 μg RNA was reverse transcribed to cDNA High-Capacity cDNA Reverse Transcription kit (Thermo Fisher). Real-time qPCR was performed (technical replicates, n=3-4) using SYBR Master Mix (Applied Biosystems, #4472952) and specific primer sequences to each gene (Table 1), on a CFX384 Real Time system (Bio-Rad). Human RPL13 was used as the reference gene and relative expression was determined using 2-ΔΔ Ct method.
Planar cultures were fixed with 4% PFA for 15 minutes, washed with PBS and then blocked overnight at 4° C. with 10% donkey serum containing 0.1% Triton-X100. After overnight incubation with primary antibodies at 4° C., cells were washed with 0.1% TWEEN-20 3× for 5 min, incubated with secondary antibodies for an hour at RT, and finally incubated with Hoechst 33342 (1:2000 dilution) for 15 minutes for nuclear counterstaining.
To optimize the ductal maturation phase, the effect of dissociating pancreatic progenitors on Day 7 and adding growth factor EGF and the Notch activating ligand sDLL-1 to the cultures was explored. FGF10 was also added at this time to increase proliferation of pancreatic cells. Based on our results, we incorporated a dissociation step prior to initiating EGF and Notch signaling in our defined iPan Ductal protocol (FIG. 2A). Dissociation of pancreatic progenitor cells inhibited acinar differentiation by Day 21 (FIG. 2B).

[3] = sDLL1 for 2 weeks started late, at pancreatic endoderm stage, Day 21

C[C@H](NC(=O)Cc1cc(F)cc(F)c1)C(=O)N[C@H]1N=C(c2ccccc2)c2ccccc2N(C)C1=O [XXI]
PDX1 levels / expression [1]: reduces PDX1 expression; also recorded: lowest PDX1 levels
amylase positive clusters / cells [1]: increases islands of amylase positive cells; also recorded: most increase in amylase positive clusters

EGF: growth factor EGF
survival and confluency (immunocytochemistry) ([2]; dissociated cells exposed to EGF): increased survival and confluency
levels of ductal markers KRT19, HNF1B, SOX9, FOXA2 ([2]; dissociated cells with exposure to EGF): increased levels of ductal KRT19, HNF1B, SOX9, and FOXA2 markers

B1: sDLL1: Notch-activating ligand; extracellular signaling domain of DLL1 (protein, UniProt O00548 18-545, looked up)
extracellular domain: QVWSSGVFELKLQEFVNKKGLLGNRNCCRGGAGPPPCACRTFFRVCLKHYQASVSPEPPCTYGSAVTPVLGVDSFSLPDGGGADSAFSNPIRFPFGFTWPGTFSLIIEALHTDSPDDLATENPERLISRLATQRHLTVGEEWSQDLHSSGRTDLKYSYRFVCDEHYYGEGCSVFCRPRDDAFGHFTCGERGEKVCNPGWKGPYCTEPICLPGCDEQHGFCDKPGECKCRVGWQGRYCDECIRYPGCLHGTCQQPWQCNCQEGWGGLFCNQDLNYCTHHKPCKNGATCTNTGQGSYTCSCRPGYTGATCELGIDECDPSPCKNGGSCTDLENSYSCTCPPGFYGKICELSAMTCADGPCFNGGRCSDSPDGGYSCRCPVGYSGFNCEKKIDYCSSSPCSNGAKCVDLGDAYLCRCQAGFSGRHCDDNVDDCASSPCANGGTCRDGVNDFSCTCPPGYTGRNCSAPVSRCEHAPCHNGATCHERGHRYVCECARGYGGPNCQFLLPELPPGPAVVDLTEKLEGQGGPFPW
modifications: extracellular domain
notes: extracellular signaling domain of DLL1
PDX1 levels / expression [1]: does not increase the Amylase positive clusters or decrease PDX1 levels
amylase positive clusters / cells [1]: does not increase the Amylase positive clusters
C-Peptide+ endocrine cells [2, 3]: C-Peptide was elevated; also recorded: higher amount of C-Peptide^+ endocrine cells
ductal markers [2, 3]: no increase in ductal markers

B2: FGF10: growth factor added to increase proliferation of pancreatic cells; activates PDX1 (protein, UniProt O15520 38-208, looked up)
Fibroblast growth factor 10: QALGQDMVSPEATNSSSSSFSSPSSAGRHVRSYNHLQGDVRWRKLFSFTKYFLKIEKNGKVSGTKKENCPYSILEITSVEIGVVAVKAINSNYYLAMNKKGKLYGSKEFNNDCKLKERIEENGYNTYASFNWQHNGRQMYVALNGKGAPRRGQKTRRKNTSAHFLPMVVHS
CTRC and amylase positive cell expression ([1]; FGF10 tested at 0, 2.5, 20 and 50 ng/mL, result for 20 ng): most CTRC and amylase positive cell expression

Reference: patent US20240084262A1, “METHODS FOR DIFFERENTIATION OF PANCREATIC EXOCRINE CELLS FROM HUMAN INDUCED PLURIPOTENT STEM CELLS” (CEDARS-SINAI MEDICAL CENTER, priority 2020, published 2024)
